First the molecules themselves.
B1: OR4K15 (parent)
chain: GUUAACGGUCAUAGGCCAUGGAAACUAGGAGCACCAUUUCGCUGCCAGUGAAGAAAUGAACAAAGAAAAUCUGGGCCAGGCAGGCAUCAAAAGAAAUAGUCUUGCGCUCAACCAGAAAGUCUGUAAUCAUUUUAAGGGUA

The data set covers variants of B1. Description: self-cleavage, relative activity (ratio to wild type); higher = more cleavage; in vitro, sequencing; the parent is a self-cleaving ribozyme.
On to GUUAACGGUCAUAGGCCAUGGAAACUAGGAGCACCAUUUCGCUGCCUGUGAAGAAAUGAACAAAGAAAAUCUGGGCCAGGCAGGCAUCAGAAGAAAUAGUCUUGCGCUCAACCAGAAAGUCUGUAAUCAUUUUAAGGGUA [A47U A90G], for which the self-cleavage came out at 0.72. Consider GUUAACGGUCAUAGGCCAUGGAAACUAGGAGCACCAUUUCGCUGCCAGUGAAGAAAUGAACAAAGAAAAUCUGGGCCAGGCAGGCAUCAAAAGAAAUAGUCUGGCGCUCAACCAGAAAGUCUGUAAUCAUUUUAAGUGUA [U103G G137U], for which the self-cleavage was determined as 0.05.

As for GUUAACGGUCAUAGGCCAUGGAAACUAGGAGCACCAUUUCGCUGCCAGUGAAGAAAUGAACCAAGAAAAUCUGGGCCAGGCAGGCAUCAAAAGAAAUAGUCUUGCGCUCAACCAGAAAGUCUGUAAUCAUUCUAAGGGUA [A62C U132C], the self-cleavage came to 1.25. As for GUUAACGGUCAUAGGCCAUGGAAACUAGGAGCGCCAUUUCGCUGCCAGUGAAGAAAUGAACAAAGAAAAUCUGGGCCAGGCAGGCAUCAGAAGAAAUAGUCUUGCGCUCAACCAGAAAGUCUGUAAUCAUUUUAAGGGUA [A33G A90G], the self-cleavage is 0.46.

In the case of GUUAACGGUCAUAGGCCAUGGAAACUAGGAGCACCAUUUCGCUGCCAGUGAAGAAAUGGACAAAGAAAAUCUGGGCCAGGCAGGCAUCAAAAGAAAUAGUCUUGCGCUCAACCAGAAAGUCUGCAAUCAUUUUAAGGGUA [A59G U124C], the self-cleavage came to 0.78. For the variant GUUAACGGUCAUAGGCCAUGGAAACUAGGAGCACCAUUUCGCUGCCAGUGAAGAAAUGAACAAAGAAAAUCUGGGCCAGGCAGGCAUCAAAAGAAAUAGUCUUGCGCUCAACCAGGAAGUCUGUAAUCAUCUUAAGGGUA [A116G U131C], the self-cleavage was 0.27. As to GUUAACGGUCAUAGGCCAUGGAAACUAGGAGCACCAUUUCGCUGCCAGUGAAGAAAUGAACAAAGAAAAUCUGGGCCAGGCAGGCGUCAAAAGAAAUAGUCUUGCGCUCAACCAGAAAGUCUGUAAUCUUUUUAAGGGUA [A86G A129U], the self-cleavage was 0.57. Turning to GUUAACGGUCAUAGGCCAUGGAAACUAGGAGCACCAUUUCGCUGCCAGUGAAGGAAUGAACAAAGAAAAUCUGGGCCAGGCAGGCAUCAAAAGAAAUAGUCUUGCGCUCAGCCAGAAAGUCUGUAAUCAUUUUAAGGGUA [A54G A111G], the self-cleavage was 0.03. Turning to GUUAACGGUCAUAGGCCAUGGAAACUAGGAGCACCAUUUCGCUGCCAGUGAAGAAAUGAACAAAGAAAAUCAGGGCCAGGCAGGCGUCAAAAGAAAUAGUCUUGCGCUCAACCAGAAAGUCUGUAAUCAUUUUAAGGGUA [U72A A86G], the self-cleavage worked out at 0.17. The figure for GUUAACGGUCAUAGGCCAUGGAAACUAGGAGCACCAUUUCGCUGCCAGGGAAGAAAUGAACAAAGAAAAUCUGGGCCAGGCAGGCAUCAAAAGAAAUAGUCUUGCGCUCAACCAGAAAGUCAGUAAUCAUUUUAAGGGUA [U49G U122A] is 1.35; for GUUAACGGUCAUAGGCCAUGGUGACUAGGAGCACCAUUUCGCUGCCAGUGAAGAAAUGAACAAAGAAAAUCUGGGCCAGGCAGGCAUCAAAAGAAAUAGUCUUGCGCUCAACCAGAAAGUCUGUAAUCAUUUUAAGGGUA [A22U A23G] it is 1.74.

GUUAACGGUCAUAGGCCAUGGAAACUAGGAGCACCAUUUCGCUGCCAGUGAAGAAAUGAACAAAGAAGAUCUGGGCCAGGCAGGCAUCAAAAGAAAUAGUCAUGCGCUCAACCAGAAAGUCUGUAAUCAUUUUAAGGGUA [A68G U102A]: the self-cleavage came to 0.85.

For GUUAACGGUCAUUGGCCUUGGAAACUAGGAGCACCAUUUCGCUGCCAGUGAAGAAAUGAACAAAGAAAAUCUGGGCCAGGCAGGCAUCAAAAGAAAUAGUCUUGCGCUCAACCAGAAAGUCUGUAAUCAUUUUAAGGGUA [A13U A18U], the self-cleavage was found to be 0.56. GUUAACGGUCAUAGGCCAUGGAAACUAGGAGCACCAUUUCGCUGCCAGUGAAGAAAUGAACAAAGAAAAUCUGGCCCAGGCAGGCAUCAAAAGAAAUAGUCUUGCGCUCGACCAGAAAGUCUGUAAUCAUUUUAAGGGUA [G75C A110G]: the self-cleavage is 0.02. On to GUUAACGGUCAUAGGCCAUGGAAACUAGGAGCACCAUUUCGCUGCCAGUGGAGAAAUGAACAAAGAGAAUCUGGGCCAGGCAGGCAUCAAAAGAAAUAGUCUUGCGCUCAACCAGAAAGUCUGUAAUCAUUUUAAGGGUA [A51G A67G], for which the self-cleavage was 1.07.

With GUUAACGGUCAUAGGCCAUGGAAACUAGGAGCACCAUUUCGCUGCCAGUGAAGAAAUGAACAAAGAAAGUCUGGGCCAGACAGGCAUCAAAAGAAAUAGUCUUGCGCUCAACCAGAAAGUCUGUAAUCAUUUUAAGGGUA [A69G G80A], the self-cleavage was 0.12.

In the case of GUUAACGGUCAUAGGCCAUGGAAACUAGGAGCACCAUCUCGCUGCCAGUGAAGAAAUGAACAAAGAAAAUCUGGGCCAGGCAGGCAUCAAAAGAAAUAGUCUUGCGCUCAAUCAGAAAGUCUGUAAUCAUUUUAAGGGUA [U38C C112U], the self-cleavage is 0.02. For GUUACCGGUCAUAGGCCAUGGAAACUAGGAGCACCAUUUCGCUGCCAGUGAAGAAAUGAACAAAGAAAAUCUGGGCCAGGCAGGCAUCAAAAGAGAUAGUCUUGCGCUCAACCAGAAAGUCUGUAAUCAUUUUAAGGGUA [A5C A95G], the self-cleavage was found to be 0.99. As for GUUAACGGUCAUAGGCCAUGGAAACUAGGAGCACCAUUUCGCUGCCAGUGAAGAAAUGAACGAAGAAAAUCUGGGCCAGGCAGGCAUCAAAAGAAAUAGUCUUGCGCUCAACCAGAAAGUCUGUAAUCAUUUUAUGGGUA [A62G A135U], the self-cleavage was 1.67. Under GUUAACGGUCAUAGGCCAUGGAAACUAGGAGCAUCUUUUCGCUGCCAGUGAAGAAAUGAACAAAGAAAAUCUGGGCCAGGCAGGCAUCAAAAGAAAUAGUCUUGCGCUCAACCAGAAAGUCUGUAAUCAUUUUAAGGGUA [C34U A36U] stands 1.19. In the case of GUUAGCGGUCAUAGGCCAUGGAAACUAGGAGCACCAUUUCGCCGCCAGUGAAGAAAUGAACAAAGAAAAUCUGGGCCAGGCAGGCAUCAAAAGAAAUAGUCUUGCGCUCAACCAGAAAGUCUGUAAUCAUUUUAAGGGUA [A5G U43C], the self-cleavage worked out at 0.59.

With GUUAACGGUCAUAGGCCAUGGAAACUAGGAGCACCAUUUCGCUGCCAGUGAAGAAAUGAACAAAGAAAAUCUGGGCCAGGCAGGCAUCAAAAGAAGUAGUCUUGCGCUCAACCAGAAAGUCUGUAAUCAUUUUAAGGGUU [A96G A140U], the self-cleavage was determined as 1.93. In the case of GUUAACGGUAAUAGGCCAUGGAAACUAGGAGCACCAUUUCGCUGCCAGUGAAGAAAUGAACAAAGAAAAUCUGGGCCAGGCAGGCAUCAAAAGAAAUAGUCUUGCGCUCAACCAGAAAGUCUGCAAUCAUUUUAAGGGUA [C10A U124C], the self-cleavage came to 0.79. The figure for GUUAACGGUCAUAGGCCAUGGAAACUAGGAGCACCAUUUCGCUGCCAGUGGAGAAAUGAACAAAGAAAAUCUGGGCCAGGCAGGCAUCAAAAGAAAUAGUCUUGCGCUCAACCAGAAAGUCUGUAAUCAGUUUAAGGGUA [A51G U130G] is 0.67; for GUUAACGGUCAUAGGCCAUGGAAACUAGGAGCACCAUUUCGCUGCCAGUGAAGAAAUGAACAAAGAAAAUCUAGGCCAGGCAGGCAUCAAAAGAAAUAGUCUUGCGCUCAACCAGAAGGUCUGUAAUCAUUUUAAGGGUA [G73A A118G] it is 0.14; for AUUAACGGUCAUAGGCCAUGGAAACUAGGAGCACCACUUCGCUGCCAGUGAAGAAAUGAACAAAGAAAAUCUGGGCCAGGCAGGCAUCAAAAGAAAUAGUCUUGCGCUCAACCAGAAAGUCUGUAAUCAUUUUAAGGGUA [G1A U37C] it is 1.61. In the case of GUUAACGGUCAUAGGCCGUGGAAACUAGGAGCACCAUUUCGCUGCCAGUGAAGAAAUGAACAAAGAAAAUCUGGGCCAGGCAGGCAUCAAAAGAAAUAGUCUUGCGCUCAACCAGAAAGUCAGUAAUCAUUUUAAGGGUA [A18G U122A], the self-cleavage amounted to 0.94. Consider GUUAACGGUCAUAGGCCAUGGAAACUGGGAGCGCCAUUUCGCUGCCAGUGAAGAAAUGAACAAAGAAAAUCUGGGCCAGGCAGGCAUCAAAAGAAAUAGUCUUGCGCUCAACCAGAAAGUCUGUAAUCAUUUUAAGGGUA [A27G A33G], for which the self-cleavage is 0.96. With GUUAACGGUCAUAGGCCAUGGAAACUAGGGGCACCAUUUCGCUGCCAGUGAAGAAAUGAACAAAGAAAAUCUGGGCCAGGCAGGCAUCCAAAGAAAUAGUCUUGCGCUCAACCAGAAAGUCUGUAAUCAUUUUAAGGGUA [A30G A89C], the self-cleavage came to 0.8. Under GUUAACGGUCAUAGGCCACGGAAACUAGGAGCGCCAUUUCGCUGCCAGUGAAGAAAUGAACAAAGAAAAUCUGGGCCAGGCAGGCAUCAAAAGAAAUAGUCUUGCGCUCAACCAGAAAGUCUGUAAUCAUUUUAAGGGUA [U19C A33G] stands 0.62; under GUUAACGGUCAUAGGCCAUGGAAACUAGGAGCACCAUUUCGCUGCCAGUGAAGAAAUGAACAAAGAACAUCUGGGCCAGGCAGGCAUGAAAAGAAAUAGUCUUGCGCUCAACCAGAAAGUCUGUAAUCAUUUUAAGGGUA [A68C C88G], 1.63; under GUUAACGGUCAUAGGCCAUGGAAACUAGGAGCACCAUUUCGCUGCCAGUGAAGAAAUGAACAAAGAAAAUCUGGGCCAGGCAGGCAUCAAAAGAAAUAGUCUUGCGCCCAACCAGAAAGUCUGUAAUCAUUUAAAGGGUA [U108C U133A], 0.01. Regarding GUUAACGGUCAUAGGCCAUGGGAACUAGGAGCACCAUUUCGCUGCCAGUGAACAAAUGAACAAAGAAAAUCUGGGCCAGGCAGGCAUCAAAAGAAAUAGUCUUGCGCUCAACCAGAAAGUCUGUAAUCAUUUUAAGGGUA [A22G G53C], the self-cleavage worked out at 1.81.

Regarding GUUAACGGUCAUAGGCCAUGGAAACUAGGAGCACCGUUUCGCUGCCAGUGAAGAAAUGAACAAAGAAAAUCUGGGCCAGGCAGGCGUCAAAAGAAAUAGUCUUGCGCUCAACCAGAAAGUCUGUAAUCAUUUUAAGGGUA [A36G A86G], the self-cleavage came to 1.01. The figure for GAUAACGGUCAUAGGCCAUGGAAACUAGGAGCACCAUCUCGCUGCCAGUGAAGAAAUGAACAAAGAAAAUCUGGGCCAGGCAGGCAUCAAAAGAAAUAGUCUUGCGCUCAACCAGAAAGUCUGUAAUCAUUUUAAGGGUA [U2A U38C] is 1.82.

Regarding GUUAACGGUCAUAGGCCAUGGAGACUAGGAGCACCAUUUCGCUGCCAGUGAAGAAAUGAGCAAAGAAAAUCUGGGCCAGGCAGGCAUCAAAAGAAAUAGUCUUGCGCUCAACCAGAAAGUCUGUAAUCAUUUUAAGGGUA [A23G A60G], the self-cleavage worked out at 0.97. For the variant GUUAACGGUCAUAGGCCAUGGAAACUAGGCGCACCAUUUCGCUGCCAGUGAAGAAAUGAACAAAGAAAAUCUGGGCCAGGCAGGCAUCAAAAGAAAUAGUCUGGCGCUCAACCAGAAAGUCUGUAAUCAUUUUAAGGGUA [A30C U103G], the self-cleavage amounted to 0.01. Regarding GUUAACGGUCAUAGGCCAUGGAAACUAGGAGCACCAUUUCGCUGCCAGUGAAGAAAUGAACAAGGAAAAUCUGGGCCAGGCAGGCAUCAAAAGAAAUAGUCUUGCGCCCAACCAGAAAGUCUGUAAUCAUUUUAAGGGUA [A64G U108C], the self-cleavage came to 0.01. Regarding GUUAACGGUCAUAGGCCAUGGGAACUAGGAGCACCAUUUCGCUGCCAGUGAAGAAAUGAACAAAGAAAAUCUGGGCCAGGCAGGCGUCAAAAGAAAUAGUCUUGCGCUCAACCAGAAAGUCUGUAAUCAUUUUAAGGGUA [A22G A86G], the self-cleavage was found to be 1.31.

Regarding GUUAACGGUCAUAGGCCAUGGAAACUAGGAGCACCAUUUCGCUGCCAGUGAAGAAAUGAACAAAGAGAAUCUGGGCCAGGCAGGCAUCAAAAGAAAUAGUCUCGCGCUCAACCAGAAAGUCUGUAAUCAUUUUAAGGGUA [A67G U103C], the self-cleavage came out at 1.36. Take GUUAACGGUCAUAGGCCAUGGAAACUAGGAGCACCAUUUCGCUGCCAGUGAAGAAAUGAACAAAGAAAAUCUGGGCCAGGCAGGCACCAAAAGAAAUAGUCUUGCGCUCAACCAGAAUGUCUGUAAUCAUUUUAAGGGUA [U87C A118U]: the self-cleavage came out at 0.9.

The record behind these values is the RNAGym collection of RNA variant scans (doi:10.7554/elife.90254).
